2 molecules from patent CN116265487A (SANYOU BIO INC, dated 2023) can be followed below.

“And” between values parts separate entries of the source, which are not always exact repeats. Identical values can stand only once.

The target of one assay is hANG1-Fc (human, UniProt Q15389 16-498, limits assumed). As to the kind of experiment: ELISA, 2μg/mL hANG1-Fc coated, anti-human Kappa HRP detection. For orientation: In an ELISA, binding on a coated surface is turned into a signal by an enzyme label.
Another assay addresses T1, 重组蛋白hANG2-His (human, UniProt O15123 19-496).
T1 construct: Made in Expi293 cells; not shown: C-terminal His tag
T1 sequence: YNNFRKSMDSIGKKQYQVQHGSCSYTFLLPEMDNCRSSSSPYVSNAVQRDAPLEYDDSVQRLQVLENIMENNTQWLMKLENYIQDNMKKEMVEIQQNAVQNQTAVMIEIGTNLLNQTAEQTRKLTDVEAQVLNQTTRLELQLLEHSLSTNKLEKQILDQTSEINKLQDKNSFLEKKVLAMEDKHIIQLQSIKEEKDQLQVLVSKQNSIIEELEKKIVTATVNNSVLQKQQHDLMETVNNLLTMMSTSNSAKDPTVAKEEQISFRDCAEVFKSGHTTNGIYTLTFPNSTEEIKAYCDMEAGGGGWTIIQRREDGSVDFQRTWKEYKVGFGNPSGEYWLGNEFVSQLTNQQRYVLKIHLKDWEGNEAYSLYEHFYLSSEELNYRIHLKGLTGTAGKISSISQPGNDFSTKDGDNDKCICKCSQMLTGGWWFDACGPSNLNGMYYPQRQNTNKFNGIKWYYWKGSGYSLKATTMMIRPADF
In words: ELISA, hANG2-His coated, anti-human-IgG-Fc-HRP detection.

A further assay addresses T2, 生物素标记的hANG2-Fc蛋白 (human, biotin-labelled (sites not given)).
T2 construct: also called biotin-hANG2-Fc
As to the kind of experiment: FACS blocking of biotin-hANG2-Fc binding to huTie2-HEK293 cells.

Chain of hANG1-Fc (Q15389 other isoform, or with tags, fused parts or gaps limits assumed): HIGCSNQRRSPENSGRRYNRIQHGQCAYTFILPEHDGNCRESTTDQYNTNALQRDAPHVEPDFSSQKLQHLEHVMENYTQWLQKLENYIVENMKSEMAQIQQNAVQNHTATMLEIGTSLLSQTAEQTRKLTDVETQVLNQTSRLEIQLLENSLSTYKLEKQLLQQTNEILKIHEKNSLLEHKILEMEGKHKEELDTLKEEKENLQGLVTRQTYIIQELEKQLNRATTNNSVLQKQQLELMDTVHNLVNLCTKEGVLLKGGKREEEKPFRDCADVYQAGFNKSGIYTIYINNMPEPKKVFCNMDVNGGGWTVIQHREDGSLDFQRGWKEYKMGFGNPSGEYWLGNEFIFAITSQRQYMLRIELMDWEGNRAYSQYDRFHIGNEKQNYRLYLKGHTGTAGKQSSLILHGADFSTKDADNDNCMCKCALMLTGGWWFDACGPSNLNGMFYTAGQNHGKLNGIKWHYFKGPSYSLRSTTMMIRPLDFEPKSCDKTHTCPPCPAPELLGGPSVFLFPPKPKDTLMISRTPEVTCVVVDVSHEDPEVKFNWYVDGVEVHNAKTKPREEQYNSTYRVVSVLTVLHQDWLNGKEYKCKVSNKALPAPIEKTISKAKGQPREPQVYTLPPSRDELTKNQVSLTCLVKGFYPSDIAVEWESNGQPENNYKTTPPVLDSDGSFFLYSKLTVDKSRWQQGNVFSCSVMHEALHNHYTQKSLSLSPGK

B1: 全人源抗体17 (antibody, human IgG1, kappa, V domains shown)
VH: EVQLVESGGGVVKPGGSLRLSCAASGFTFNKYTINWVRQTPGKGLELVADISSGGDYVNYADSVKGRFTISRDNAKDSVYLLMNGLRAEDTAVYYCARDALTYSNNWLDSWGQGTLVTVSS
VL: DIQLTQSPSFLSASVGDRVTITCRASQGISSYLAWYQQKPGKAPKLLIYAASTLQSGVPSRFSGGGYGTDFTLTISSLQPEDFATYYCQQFESYPLTFGGGTRLEIKR
notes: Fully human anti-ANG2 antibody in IgG1 format
Consider B1, for which the binding result in the assay with hANG1-Fc is listed as “no binding”; in the assay with 重组蛋白hANG2-His, “binds”.

B2: 全人源抗体78A74-7 (antibody, human IgG1, kappa, V domains shown)
VH: QVQLVESGGGLVKPGGSLRLSCAASGFTFSSYSMNWVRQAPGKGLEWVAVISYDGSNKYYADSVKGRFTISRDNSKNTLYLQMNSLRAEDTAVYYCAKATLDGYTAGYYYGMDVWGQGTTVTVSS
VL: EIVLTQSPATLSLSPGERATLSCRASQSVSSYLAWYQQKPGQAPRLLIYDASNRATGIPARFSGSGSGTDFTLTISSLEPEDFAVYYCQLMSNWPPEWTFGQGTKVEIKR
notes: as for B1
The term IC50 denotes the concentration that gives 50% inhibition. Low readings indicate greater potency in that assay, high ones weaker potency in that assay. Take B2: in the assay with 生物素标记的hANG2-Fc蛋白, the IC50 is 0.226 nM and 0.44 nM. Besides, the binding result is recorded as “no binding” in the assay with hANG1-Fc and “binds” with 重组蛋白hANG2-His.
